Assay results taken from article PMC5874051, “Gene cloning of a neutral ceramidase from the sphingolipid metabolic pathway based on transcriptome analysis of Amorphophallus muelleri” (PLoS ONE, 2018).

Substrate: CCCCCCCCCCCCC/C=C/[C@@H](O)[C@H](CO)NC(=O)CCCCCCCCCCCNc1ccc([N+](=O)[O-])c2nonc12
Assay: hydrolysis of NBD-ceramide, reverse-phase HPLC with DAD detector; Michaelis-Menten and Lineweaver-Burk
Format: biochemical, Amorphophallus muelleri
Conditions: 37 °C, 1 h, pH of the kinetic assay not clearly stated, labelled compound

B1: AmCDase (A. muelleri neutral ceramidase) (Amorphophallus muelleri) (protein)
chain: MEASSCSRDYKDHDGSFKIWLCVFLDLVLLNGRLVSRSSDYLVGLASYDITGPAADVNMMGYANAEQIVSGVHFRLRARAFIVAEPGGKRVAFVNLDACMASQLVTIKVLERLKTRYGDLYTAENVAISGIHTHAGPGGYLQYVTYIVTSLGFVRQSFDIIVDGIERSIIQAHDNLRPGSIIVNKGELLDAGVNRSPSAYLNNPYDERKKYSYDVDKEMTLLKFVDDEWGPVGSFNWFATHGTSMSRTNSLISGDNKGAAARFMEDWFKQKSTEPAEHDLFRSDDKLNEIPRRVSIIIPRPRENYKNFTQLASSFPATGGERVTSFLSSTQRVRSIFRQGNRPAFVSAFCQSNCGDVSPNVLGAFCIDTGRPCDFNHSTCNGKNELCYGRGPGYPDEFESTRIIGERQLKKAVDLFDTASEQIKGKVDYRHTYINFSQLKVTIPSSNGSEQVVKTCPAAMGFAFAAGTTDGPGAFDFTQGDEKGNPFWRLVRNLLKTPDKVQVECQLPKPILLDTGEMKQPYDWAPSILPLQILRIGQLVILSVPGEFSTMAGRRLRDAVKMMLTSSGNNEFDNNVHIVIAGLTNTYSQYVTTFEEYEIQRYEGASTLYGPHTLSGYIQEFKKLAAALLNKQTVEPGPAPPDLLKKQMSLLPGVVMDAAPLGFNFGDVSDDVPALSKFKEGDKVSATFWSGCPRNDLLTEGTFALVERLNGVDTWVPAYDDDDFSLRFRWSRPSKFSPYSQATIEWRIPKDAPAGVYRLRHSGATKGLIGCINHFTGTSSAFAVR
notes: Ni-NTA and Superdex 200
With B1 as the protein, how does the Km read?
The Km was 34.51 µM.
